The values that follow come from US20120190819A1 (MEDICAL RESEARCH COUNCIL, published 2012).

The target of this assay is T1, SH3 domain of yeast Sho1p (yeast two-hybrid bait, pEG202-Sho1-SH3) (yeast, UniProt P40073 300-367, limits assumed).
T1 construct: domain: SH3 domain; also called Sho1p SH3 domain
The experiment in a line: yeast two-hybrid, Sho1-SH3 binding. An excerpt: We noted that other peptides containing a leucine at −5 (such as Apt03 and 05) were not inhibitory. Unlike AptA, these two peptide aptamers are constrained. To test the idea that constraint prevents the PPII helix of peptide aptamers such as Apt03 and 05 from productive interaction with Sho1 SH3, we replaced the C-terminal stop codon of AptA with codons encoding each amino acid residue in turn to make AptA a full-length peptide aptamer constrained in STM. After re-constraint, only one of the seven amino acid residues P, V, C, D, H, F and W at +5 allow binding to Sho1 SH3 in the context of a constrained protein (Table IV). This contrasts with the findings of Feng et al [Feng S, Chen J K, Yu H, Simon J A, Schreiber S L. 1994. Two binding orientations for peptides to the Src SH3 domain: development of a general model for SH3-ligand interactions. Science. 266: 1241-7] and Rickles et al [Rickles R J, Botfield M C, Zhou X M, Henry P A, Brugge J S, Zoller M J. 1995. Phage display selection of ligand residues important for Src homology 3 domain binding specificity. Proc Natl Acad Sci USA. […] In addition, none of the constrained AptA variants show the ability to inhibit Pbs2-Hog1 activation (Table IV). […] They further indicate that in the context of STM, the presence of one of the 7 permissive residues at position +5 either allows the formation of a left handed type II polyproline helix or allows interaction at a surface on Sho1 distinct from the SH3 domain.

T1 sequence (P40073 300-367 limits assumed): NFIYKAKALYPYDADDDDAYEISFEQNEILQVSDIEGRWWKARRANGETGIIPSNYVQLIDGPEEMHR

B1: re-constrained AptA, RLNKPLPSLPVH in full-length STM (designed binder)
chain: MIPWGLSEAKPATPEIQEIVDKVKPQLEEKTNETYGKLEAVQYKTQVDAGTNYYIKVRAGDNKYMHLKVFNGPRLNKPLPSLPVHGPPGQNEDLVLTGYQVDKNKDDELTGF
notes: Stop codon of AptA replaced, making a full-length aptamer constrained in STM
Consider B1, for which the binding result is “binds”.

B2: re-constrained AptA, RLNKPLPSLPVI in full-length STM (designed binder)
chain: MIPWGLSEAKPATPEIQEIVDKVKPQLEEKTNETYGKLEAVQYKTQVDAGTNYYIKVRAGDNKYMHLKVFNGPRLNKPLPSLPVIGPPGQNEDLVLTGYQVDKNKDDELTGF
notes: as for B1
B2: the binding result is “no binding”.

B3: re-constrained AptA, RLNKPLPSLPVN in full-length STM (designed binder)
chain: MIPWGLSEAKPATPEIQEIVDKVKPQLEEKTNETYGKLEAVQYKTQVDAGTNYYIKVRAGDNKYMHLKVFNGPRLNKPLPSLPVNGPPGQNEDLVLTGYQVDKNKDDELTGF
notes: as for B1
For the molecule B3, the binding result was “binds”.

B4: re-constrained AptA, RLNKPLPSLPVF in full-length STM (designed binder)
chain: MIPWGLSEAKPATPEIQEIVDKVKPQLEEKTNETYGKLEAVQYKTQVDAGTNYYIKVRAGDNKYMHLKVFNGPRLNKPLPSLPVFGPPGQNEDLVLTGYQVDKNKDDELTGF
notes: as for B1
Regarding B4, the binding result is reported as “binds”.

B5: re-constrained AptA, RLNKPLPSLPVL in full-length STM (designed binder)
chain: MIPWGLSEAKPATPEIQEIVDKVKPQLEEKTNETYGKLEAVQYKTQVDAGTNYYIKVRAGDNKYMHLKVFNGPRLNKPLPSLPVLGPPGQNEDLVLTGYQVDKNKDDELTGF
notes: as for B1
With B5, the binding result was “no binding”.

B6: re-constrained AptA, RLNKPLPSLPVP in full-length STM (designed binder)
chain: MIPWGLSEAKPATPEIQEIVDKVKPQLEEKTNETYGKLEAVQYKTQVDAGTNYYIKVRAGDNKYMHLKVFNGPRLNKPLPSLPVPGPPGQNEDLVLTGYQVDKNKDDELTGF
notes: as for B1
In the case of B6, the binding result was “binds”.

B7: re-constrained AptA, RLNKPLPSLPVK in full-length STM (designed binder)
chain: MIPWGLSEAKPATPEIQEIVDKVKPQLEEKTNETYGKLEAVQYKTQVDAGTNYYIKVRAGDNKYMHLKVFNGPRLNKPLPSLPVKGPPGQNEDLVLTGYQVDKNKDDELTGF
notes: as for B1
On to B7, for which the binding result is given as “binds”.

B8: re-constrained AptA, RLNKPLPSLPVC in full-length STM (designed binder)
chain: MIPWGLSEAKPATPEIQEIVDKVKPQLEEKTNETYGKLEAVQYKTQVDAGTNYYIKVRAGDNKYMHLKVFNGPRLNKPLPSLPVCGPPGQNEDLVLTGYQVDKNKDDELTGF
notes: as for B1
As for B8, the binding result is given as “binds”.

B9: re-constrained AptA, RLNKPLPSLPVA in full-length STM (designed binder)
chain: MIPWGLSEAKPATPEIQEIVDKVKPQLEEKTNETYGKLEAVQYKTQVDAGTNYYIKVRAGDNKYMHLKVFNGPRLNKPLPSLPVAGPPGQNEDLVLTGYQVDKNKDDELTGF
notes: as for B1
Consider B9, for which the binding result is given as “no binding”.

B10: re-constrained AptA, RLNKPLPSLPVG in full-length STM (designed binder)
chain: MIPWGLSEAKPATPEIQEIVDKVKPQLEEKTNETYGKLEAVQYKTQVDAGTNYYIKVRAGDNKYMHLKVFNGPRLNKPLPSLPVGGPPGQNEDLVLTGYQVDKNKDDELTGF
notes: as for B1
For the molecule B10, the binding result was “no binding”.

B11: re-constrained AptA, RLNKPLPSLPVM in full-length STM (designed binder)
chain: MIPWGLSEAKPATPEIQEIVDKVKPQLEEKTNETYGKLEAVQYKTQVDAGTNYYIKVRAGDNKYMHLKVFNGPRLNKPLPSLPVMGPPGQNEDLVLTGYQVDKNKDDELTGF
notes: as for B1
On to B11, for which the binding result is “no binding”.

B12: re-constrained AptA, RLNKPLPSLPVE in full-length STM (designed binder)
chain: MIPWGLSEAKPATPEIQEIVDKVKPQLEEKTNETYGKLEAVQYKTQVDAGTNYYIKVRAGDNKYMHLKVFNGPRLNKPLPSLPVEGPPGQNEDLVLTGYQVDKNKDDELTGF
notes: as for B1
With B12, the binding result is recorded as “no binding”.

B13: re-constrained AptA, RLNKPLPSLPVQ in full-length STM (designed binder)
chain: MIPWGLSEAKPATPEIQEIVDKVKPQLEEKTNETYGKLEAVQYKTQVDAGTNYYIKVRAGDNKYMHLKVFNGPRLNKPLPSLPVQGPPGQNEDLVLTGYQVDKNKDDELTGF
notes: as for B1
Consider B13, for which the binding result is “no binding”.
